The values below are quoted from earlier work in patent US20220184026A1, “COMPOSITIONS OF FULVIC ACID AND CANNABINOID AND USES THEREOF” (Omni Bioceutical Innovations, Inc., priority 2019, published 2022).

Like-named read-outs stand apart in the source and are kept apart here.

The data set has as its system chronic wounds. Also on record: key: N.S. = not statistically significant.

B1: transforming growth factor-β2 (protein, UniProt P61812 303-414, looked up)
Transforming growth factor …: ALDAAYCFRNVQDNCCLRPLYIDFKRDLGWKWIHEPKGYNANFCAGACPYLWSSDTQHSRVLSLYNTINPEASASPCCVSQDLEPLTILYYIGKTPKIEQLSNMIVKSCKCS
Consider B1, for which, where the note is “Robson et al., venous wounds (n=36), 2.5 μg/cm^2 three times per week”, the Results entry was “N.S”.

B2: platelet-derived growth factor BB (protein, UniProt P01127 82-190, looked up)
Platelet-derived growth …: SLGSLTIAEPAMIAECKTRTEVFEISRRLIDRTNANFLVWPPCVEVQRCSGCCNNRNVQCRPTQVQLRPVQVRKIEIVRKKPIFKKATVTLEDHLACKCETVAAARPVT
Regarding B2, the Results entry by setting is: (Mustoe et al., pressure wounds (n=45), 1 and 3 μg/mL daily) “N.S”; (Robson et al., pressure wounds (n=20), 1, 10, and 100 μg/mL daily) “N.S”.
